Patent US20240287172A1 (SCIRHOM, published 2024)
Substitutions are numbered along the chain they refer to.

Biological target: T1, hiR2-FL-M534-T7 (deletion of M534) (human, UniProt Q6PJF5 1-856)
T1 construct: single amino acid deletion
T1 sequence: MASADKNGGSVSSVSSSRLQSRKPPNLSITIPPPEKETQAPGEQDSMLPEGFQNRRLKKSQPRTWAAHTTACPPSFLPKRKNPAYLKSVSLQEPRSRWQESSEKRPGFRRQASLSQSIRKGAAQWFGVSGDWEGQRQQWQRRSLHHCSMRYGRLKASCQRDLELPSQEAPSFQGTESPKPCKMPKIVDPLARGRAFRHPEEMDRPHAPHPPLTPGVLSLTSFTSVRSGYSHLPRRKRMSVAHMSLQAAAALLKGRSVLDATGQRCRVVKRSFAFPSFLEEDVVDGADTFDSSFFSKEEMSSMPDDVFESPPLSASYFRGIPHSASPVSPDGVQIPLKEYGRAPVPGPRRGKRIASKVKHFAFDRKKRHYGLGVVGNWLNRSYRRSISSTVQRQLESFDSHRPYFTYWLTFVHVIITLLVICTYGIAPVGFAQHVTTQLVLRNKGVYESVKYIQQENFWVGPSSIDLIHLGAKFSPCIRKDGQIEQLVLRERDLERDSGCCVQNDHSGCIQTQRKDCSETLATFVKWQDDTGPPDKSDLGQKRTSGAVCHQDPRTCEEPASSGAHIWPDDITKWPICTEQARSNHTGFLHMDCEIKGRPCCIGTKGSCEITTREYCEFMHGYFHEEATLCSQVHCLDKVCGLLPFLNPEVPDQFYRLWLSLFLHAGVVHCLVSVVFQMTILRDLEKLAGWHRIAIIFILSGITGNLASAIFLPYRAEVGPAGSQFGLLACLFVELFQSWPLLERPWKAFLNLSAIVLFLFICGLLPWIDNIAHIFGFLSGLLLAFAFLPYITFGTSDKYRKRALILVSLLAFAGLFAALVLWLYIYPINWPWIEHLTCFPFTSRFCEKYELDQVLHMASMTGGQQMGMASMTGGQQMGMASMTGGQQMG
Test: FACS, MEF-DKO cells, 3 µg/ml
Description: In brief, immortalized MEF-DKO-hiR2-FL-G498A-T7, MEF-DKO-hiR2-FL-Q502R-T7, MEF-DKO-hiR2-FL-I509V-T7, MEF-DKO-hiR2-FL-Q512S-T7, MEF-DKO-hiR2-FL-R513E-T7, MEF-DKO-hiR2-FL-K514E-T7, MEF-DKO-hiR2-FL-D515E-T7, MEF-DKO-hiR2-FL-E518S-T7, MEF-DKO-hiR2-FL-T522V-T7, MEF-DKO-hiR2-FL-F523W-T7, MEF-DKO-hiR2-FL-Q527P-T7, MEF-DKO-hiR2-FL-D528I-T7, MEF-DKO-hiR2-FL-D529H-T7, MEF-DKO-hiR2-FL-T530P-T7, MEF-DKO-hiR2-FL-G531S-T7, MEF-DKO-hiR2-FL-P532A-T7, MEF-DKO-hiR2-FL-M534-T7, MEF-DKO-hiR2-FL-D535-T7, MEF-DKO-hiR2-FL-K536-T7, MEF-DKO-hiR2-FL-S537E-T7, MEF-DKO-hiR2-FL-D538L-T7, MEF-DKO-hiR2-FL-L539A-T7, MEF-DKO-hiR2-FL-Q541H-T7, MEF-DKO-hiR2-FL-T544Q-T7, MEF-DKO-hiR2-FL-S545F-T7, MEF-DKO-hiR2-FL-A547S-T7, MEF-DKO-hiR2-FL-T555V-T7, MEF-DKO-hiR2-FL-E557D-T7, MEF-DKO-hiR2-FL-A560S-T7 and MEF-DKO-hiR2-FL-S562E-T7 cells were harvested with 10 mM EDTA in PBS, washed and resuspended in FACS buffer (PBS, 3% FBS, 0.05% sodium azide), and seeded in Nunc U-bottom 96-well plates (Thermo Fisher Scientific, USA) at approximately 3×10⁵ cells per well. To pellet cells and remove supernatants, the plates were centrifuged at 1,500 rpm and 4° C. for 3 minutes. For primary staining, cells were resuspended in 100 μl per well of either FACS buffer alone (controls) or the purified antibodies 3, 5, 16, 22, 34, 42, 43, 44, 48, and 50 of the invention at 3 μg/ml in FACS buffer and incubated on ice for 1 hour. Afterwards, plates were centrifuged at 1,500 rpm and 4° C. for 3 minutes and washed twice with 200 μl per well of FACS buffer. For secondary staining, cells were spun down and resuspended in 100 μl per well of PE-conjugated goat anti-mouse IgG F(ab′)2 detection fragment (Dianova, Germany) diluted 1:100 in FACS buffer. Protected from light, the cell suspensions were incubated on ice for 1 hour. Plates were then centrifuged at 1,500 rpm and 4° C. for 3 minutes and washed three times with 200 μl per well of FACS buffer. Finally, cells were resuspended in 150 μl per well of FACS buffer and analyzed using a BD Accuri™ C6 Plus flow cytometer (Becton Dickinson, Germany).

B1: antibody 34 (antibody, V domains shown)
VH: QVTLKESGPGILQPSQTLSLTCSFSGFSLSTFSLGVGWIRQSSGKGLEWLAHIWWDDEKYYNPALKSRLTISKDTSKNQVFLKIANVDAADTATYYCARAYYSKSYYALDYWGQGTSVTVSS
VL: DIQMTQSPSSLSASLGERVSLTCRASQEISGYLSWLQQKPDGTIKRLIYAASTLDSGVPKRFSGSRSGSDYSLAISSLESEDFADYYCLQYANFPFTFGSGTKLEIK
notes: mouse IgG, kappa light chain; also called clone #34; purified antibody 34
loss of binding vs wild type: ≥ 95%

B2: antibody 5 (antibody, V domains shown)
VH: QVTLKESGPGILQPSQTLSLTCSFSGFSLSTFGMGVGWIRQPSGKGLEWLAHIWWDDEKYYNSALKSRLTISKATSKNQAFLKIANVDTADTATYYCARISNYGSNYWYFNVWGTGTTVTVSS
VL: QVVLTQSPALMSASPGEKVTMTCSAGSSVSCMYWYQQKPGSSPRVLIYDTSNLASGVPARFTGSGSGTSYSLTISRMEAEDAASYYCQQWNSYPLTFGAGTKLELK
notes: mouse IgG, kappa light chain; also called clone #5; purified antibody 5
loss of binding vs wild type: ≥ 95%

B3: antibody 42 (antibody, V domains shown)
VH: B2 VH with F24L, M34R, S63P, A74D, A80V, K83R, S101Q, N111D
VL: LIVLTQSPAIMSASPGEKVTMTCGATSRISYMFWYQQKPGSSPRVLIYDTSNLASGVPVRFSGSGSGTSYSLTISRVEAEDVATYYCQQWNSYPLTFGAGTKLELK
notes: mouse IgG, kappa light chain; also called clone #42; purified antibody 42
loss of binding vs wild type: ≥ 95%

B4: antibody 43 (antibody, V domains shown)
VH: B2 VH with T3A, P42S, H52N, E58D, S63P, A74D, T75A, S101G, N111D
VL: B3 VL with L1Q, K18R, G24S, T26N, F33Y, V45L, V77M, V82A, Y86N, N91S
notes: mouse IgG, kappa light chain; also called clone #43; purified antibody 43
loss of binding vs wild type: ≥ 95%

B5: antibody 44 (antibody, V domains shown)
VH: B2 VH with G44E, E58D, S63P, A74D, A80I, A85T, D91E, A98S, S101G, N111D
VL: QIVLTQSPAVMSASPGEKVTMTCTASSSVYYMYWYQQTPGSSPRLLIYDTSNLASGVPVRFSGSGSGTSYSLTISRMEAEDAATYYCQQWNTYPLTFGAGTKLELK
notes: mouse IgG, kappa light chain; also called clone #44; purified antibody 44
loss of binding vs wild type: ≥ 95%

B6: antibody 22 (antibody, V domains shown)
VH: B2 VH with A80V
VL: B2 VL with C31Y, S84T
notes: mouse IgG, kappa light chain; also called clone #22; purified antibody 22
loss of binding vs wild type: ≥ 95%

B7: antibody 16 (antibody, V domains shown)
VH: QVTLKESGPGILQPSQTLSLTCSFSGFSLSTFALGVGWIRQPSGRGLEWLAHIWWDDDKYYNPALKSRLTISKDTSKNHVFLKIANVDTADTATYYCARITTYYYGMDYWGQGTSVTVSS
VL: DIVLSQSPATLSVTPGDSVSLFCRASQSIGNHLHWYQQESHASPRLLIKYASQSISGIPSRFSGSGSGTDFTLSINSVETEDFGMYFCQQSYNWPLTFGAGTKLELK
notes: mouse IgG, kappa light chain; also called clone #16; purified antibody 16
loss of binding vs wild type: ≥ 95%

B8: antibody 3 (antibody, V domains shown)
VH: QVTLKESGPGILQPSQTLSLTCSFSGFSLTTFAMGIGWVRQPSGKGLEWLAHIWWDGEKYNNPVLKSRLTISKDTSKNQVFLRIANVDTPDTATYYCARISSIYYIIDNWGQGTSVTVSS
VL: B7 VL with S5T, D17H, F22S, G30S, H32N, Q38K, E39K, A42E, A51V
notes: mouse IgG, kappa light chain; also called clone #3; purified antibody 3
loss of binding vs wild type: ≥ 95%
